# Source: paper PMC10037447
# Where “and” joins values, the source holds several entries; their conditions need not be identical. Equal values may be shown once.
# Molecular target: F-type ATP synthase from bovine heart mitochondria (Bos taurus (purified from bovine heart))
# Test: native gel or EMSA; Blue-Native PAGE (3-12% Bis-Tris mini-gels) of F-type ATP synthase re-extracted with 0.5% LMNG from LAiR proteoliposomes (bovine heart lipids) at time points over 5 days of storage on ice at 4 °C
substance,measurement,value
F-type ATP synthase from bovine heart mitochondria (complex),stoichiometry N,2 and 4
